{"source": "patent US8440629B2", "about": "“Cyclic receptor-associated protein (RAP) peptides” (Raptor Pharmaceuticals Inc., priority 2007, dated 2013)", "molecules": {"B1": {"name": "RAP d3: third domain of human RAP, amino acids 201-319 of mature RAP, bacterially expressed with hexahistidine and S-peptide tags (SEQ ID NO: 92) (protein, listed as Homo sapiens)", "chain": "LDRLRRVSHQGYSTEAEFEEPRVIDLWDLEQSANLTDKELEAFREELKHFEAKIEKHNHYQKQLEIAHEKLRHAESVGDGERVSRSREKHALLEGRTKELGYTVKKHLQDLSGRISRAR", "modifications": "hexahistidine and S-peptide tags"}}, "assay_in_all_cases": "Solid phase binding assay", "key": {"LRP2 CR34-36": {"target": "T1, LRP2 CR34-36 (Homo sapiens, UniProt P98164)", "T1 construct": "a CR triplet from LRP2 (CR34-36); made in house; host or cells: E. coli BL21(DE3) CodonPlus-RIPL, pET30(+)a", "T1 sequence (P98164 3838-3974 limits assumed)": "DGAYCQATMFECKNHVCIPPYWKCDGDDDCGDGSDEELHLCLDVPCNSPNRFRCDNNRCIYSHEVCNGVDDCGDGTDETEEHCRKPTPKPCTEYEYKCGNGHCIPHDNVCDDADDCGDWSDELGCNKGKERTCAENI", "conditions": "highest ligand concentrations tested", "experimental": "(§1) All expression constructs were sequenced to verify insert sequences and the junctions with the expression vector. Each plasmid was then used to transform BL21(DE3) CodonPlus-RIPL™ cells (Stratagene). Expression of the CR proteins was induced in logarithmic growth-phase cells grown in LB supplemented with 34 μg/mL chloramphenicol, 12.5 μg/mL tetracycline and 15 μg/mL kanamycin by addition of 2 mM IPTG, followed by reduction in incubator temperature to 32° C. and incubation for 4 hours with agitation at […]. Cells were pelleted and resuspended, at 3.5% of the initial culture volume in 10 mM Tris-HCl pH 8, 100 mM NaH2PO4, 8M Urea. Resuspended cells were then frozen in liquid nitrogen, rapidly thawed to 37° C. and sonicated for 10 seconds at an amplitude setting of 60 using a Cole-Parmer CP-130 ultrasonic processor connected to a 3 mm probe. This procedure was repeated three times to effect complete lysis of the cells. Lysates were clarified by spinning twice at 10,000×g in a Sorvall RC-5 centrifuge for 20 minutes at 15° C. Ni-NTA columns (Qiagen Superflow™, 1.5 mL packed bed) were used to purify the CR proteins. Briefly, the resin was equilibrated with two column volumes of lysis buffer. The clarified lysate was then supplemented to 20 mM with imidazole and incubated with the equilibrated Ni-NTA resin overnight at 4° C. The flow-through was discarded. Columns were washed once with one column volume of lysis buffer and then three times with one column volume of TBS pH 8 supplemented with 20 mM imidazole. CR-loaded beads were then removed from the column and CR proteins eluted by incubating at room temperature for 30 minutes with one column volume of the same buffer containing 200 mM imidazole. This step was repeated once and the eluates pooled. Eluted CR protein solutions were then supplemented to 2 M urea, 10 mM CaCl2 and 5 mM DTT. Purified, denatured CR protein solutions were transferred to 3,500 MWCO Slide-A-Lyzer™ (Pierce) cassettes and sequentially dialyzed against a 200-fold excess of 50 mM Tris-HCl pH 8.5, 10 mM CaCl2, 1 mM reduced glutathione, 0.5 mM oxidized glutathione at room temperature overnight and then against TBS supplemented with 5 mM CaCl2 at 4° C. overnight. Protein concentrations were determined by Bradford assay and purity confirmed by SDS-PAGE with Coomassie Brilliant Blue staining.\n(§2) Purified, refolded CR protein (1 μg) was bound to Nunc Maxisorp™ 96-well plates in TBS pH 8 supplemented with 5 mM CaCl2 (TBSC) overnight at 4° C. Wells were washed with TBSC and then blocked with TBSC containing 2% bovine serum albumin (BSA). RAP ligands were then incubated with the immobilized receptor at a range of concentrations for 2 hours in the above blocking buffer supplemented with 0.05% Tween-20 at room temperature. Control wells contained no added ligand. As an additional control, to determine whether the absence of calcium affected binding, 10 mM EGTA was included in the incubation medium for some samples. Wells were washed with TBSTC and bound ligands detected with polyclonal anti-RAP (BP41/42, 1:1,000, BioMarin). Excess primary antibody was removed and wells washed before incubation with the secondary antibody, HRP-conjugated goat anti rabbit IgG (Bio-Rad). After washing, TMB substrate solutions (Bio-Rad) were added to detect HRP. Color development was stopped with 1N HCl. Absorption at 450 nm was measured with a microplate spectrophotometer (Molecular Devices). Data were plotted and Kd values derived by non-linear regression with the assumption of single-site binding (GraphPad Prism)."}, "LRP2 CR3536": {"target": "T2, LRP2 CR3536 (Homo sapiens, UniProt P98164)", "T2 construct": "VLDLR CR78, LRP2 CR3536, LRP2 CR34-36 and MAT CR23; made in house; host or cells: E. coli BL21(DE3) CodonPlus-RIPL, pET30(+)a", "T2 sequence (P98164 3880-3974 limits assumed)": "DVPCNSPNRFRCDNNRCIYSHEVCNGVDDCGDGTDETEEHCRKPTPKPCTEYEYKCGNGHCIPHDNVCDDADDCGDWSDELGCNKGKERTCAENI", "conditions": "highest ligand concentrations tested", "experimental": "as §1, §2"}, "LRP6 CR12": {"target": "T3, LRP6 CR12 (Homo sapiens, UniProt O75581)", "T3 construct": "LRP6 CR12 and LRP6 CR23, amino acids 1247-1322 and 1323-1363; made in house; host or cells: E. coli BL21(DE3) CodonPlus-RIPL, pET30(+)a", "T3 sequence (O75581 1247-1322)": "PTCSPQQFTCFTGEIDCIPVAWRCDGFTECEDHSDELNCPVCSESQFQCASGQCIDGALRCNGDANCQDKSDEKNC", "conditions": "highest ligand concentrations tested"}, "MAT CR34": {"target": "T4, MAT CR34 (Homo sapiens, UniProt Q9Y5Y6)", "T4 construct": "MAT CR34 (ST14 CR34), amino acids 525-602; made in house; host or cells: E. coli BL21(DE3) CodonPlus-RIPL, pET30(+)a", "T4 sequence (Q9Y5Y6 525-602)": "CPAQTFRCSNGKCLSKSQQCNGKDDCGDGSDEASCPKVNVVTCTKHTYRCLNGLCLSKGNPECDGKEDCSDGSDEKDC", "conditions": "separate set of experiments"}, "LRP6 CR1-3": {"target": "T5, LRP6 CR1-3 (Homo sapiens, UniProt O75581)", "T5 construct": "made in house; host or cells: E. coli BL21(DE3) CodonPlus-RIPL, pET30(+)a", "T5 sequence (O75581 1247-1363)": "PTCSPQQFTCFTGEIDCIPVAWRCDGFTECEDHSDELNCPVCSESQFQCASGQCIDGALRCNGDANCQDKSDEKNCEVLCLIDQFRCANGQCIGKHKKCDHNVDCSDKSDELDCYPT", "conditions": "highest ligand concentrations tested"}, "LRP6 CR23": {"target": "T6, LRP6 CR23 (Homo sapiens, UniProt O75581)", "T6 construct": "the two CR pairs from LRP6 within the triplet (CR1 and 2, termed CR12, CR2 and 3, termed CR23); made in house; host or cells: E. coli BL21(DE3) CodonPlus-RIPL, pET30(+)a", "T6 sequence (O75581 1286-1363 limits assumed)": "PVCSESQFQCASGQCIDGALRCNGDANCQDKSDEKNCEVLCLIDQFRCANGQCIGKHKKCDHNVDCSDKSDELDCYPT", "conditions": "highest ligand concentrations tested"}, "MAT CR12": {"target": "T7, MAT CR12 (Homo sapiens, UniProt Q9Y5Y6)", "T7 construct": "termed MAT CR12 (ST14 CR12), amino acids 452-524; made in house; host or cells: E. coli BL21(DE3) CodonPlus-RIPL, pET30(+)a", "T7 sequence (Q9Y5Y6 452-524)": "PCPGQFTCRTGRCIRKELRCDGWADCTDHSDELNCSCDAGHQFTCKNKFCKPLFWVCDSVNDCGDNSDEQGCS", "conditions": "separate set of experiments"}}}
{"molecule": "B1", "values": [{"measurement": "binding relative to that for LRP1 CR3-5", "setting": "LRP2 CR34-36", "value": "less than 5%"}, {"measurement": "binding relative to that for LRP1 CR3-5", "setting": "LRP2 CR3536", "value": "less than 5%"}, {"measurement": "binding relative to that for LRP1 CR3-5", "setting": "LRP6 CR12", "value": "less than 5%"}, {"measurement": "binding (in words)", "setting": "MAT CR34", "value": "undetectable"}, {"measurement": "binding relative to that for LRP1 CR3-5", "setting": "LRP6 CR1-3", "value": "less than 5%"}, {"measurement": "binding relative to that for LRP1 CR3-5", "setting": "LRP6 CR23", "value": "less than 5%"}, {"measurement": "binding (in words)", "setting": "MAT CR12", "value": "undetectable"}]}
